According to patent publication US9618524B2, “Method, composition, isolation and identification of a plaque particle and related biomarker” (Plaxgen Inc., priority 2012, dated 2017):

B1: Inter-alpha-trypsin inhibitor heavy chain H1 (protein)
chain: SKSSEKRQAVDTAVDGVFIRSLKVNCKVTSRFAHYVVTSQVVNTANEAREVAFDLEIPKTAFISDFAVTADGNAFIGDIKDKVTAWKQYRKAAISGENAGLVRASGRTMEQFTIHLTVNPQSKVTFQLTYEEVLKRNHMQYEIVIKVKPKQLVHHFEIDVDIFEPQGISKLDAQASFLPKELAAQTIKKSFSGKKGHVLFRPTVSQQQSCPTCSTSLLNGHFKVTYDVSRDKICDLLVANNHFAHFFAPQNLTNMNKNVVFVIDISGSMRGQKVKQTKEALLKILGDMQPGDYFDLVLFGTRVQSWKGSLVQASEANLQAAQDFVRGFSLDEATNLNGGLLRGIEILNQVQESLPELSNHASILIMLTDGDPTEGVTDRSQILKNVRNAIRGRFPLYNLGFGHNVDFNFLEVMSMENNGRAQRIYEDHDATQQLQGFYSQVAKPLLVDVDLQYPQDAVLALTQNHHKQYYEGSEIVVAGRIADNKQSSFKADVQAHGEGQEFSITCLVDEEEMKKLLRERGHMLENHVERLWAYLTIQELLAKRMKVDREERANLSSQALQMSLDYGFVTPLTSMSIRGMADQDGLKPTIDKPSEDSPPLEMLGPRRTFVLSALQPSPTHSSSNTQRLPDRVTGVDTD
B2: Afamin (protein)
chain: LPTQPRDIENFNSTQKFIEDNIEYITIIAFAQYVQEATFEEMEKLVKDMVEYKDRCMADKTLPECSKLPNNVLQEKICAMEGLPQKHNFSHCCSKVDAQRRLCFFYNKKSDVGFLPPFPTLDPEEKCQAYESNRESLLNHFLYEVARRNPFVFAPTLLTVAVHFEEVAKSCCEEQNKVNCLQTRAIPVTQYLKAFSSYQKHVCGALLKFGTKVVHFIYIAILSQKFPKIEFKELISLVEDVSSNYDGCCEGDVVQCIRDTSKVMNHICSKQDSISSKIKECCEKKIPERGQCIINSNKDDRPKDLSLREGKFTDSENVCQERDADPDTFFAKFTFEYSRRHPDLSIPELLRIVQIYKDLLRNCCNTENPPGCYRYAEDKFNETTEKSLKMVQQECKHFQNLGKDGLKYHYLIRLTKIAPQLSTEELVSLGEKMVTAFTTCCTLSEEFACVDNLADLVFGELCGVNENRTINPAVDHCCKTNFAFRRPCFESLKADKTYVPPPFSQDLFTFHADMCQSQNEELQRKTDRFLVNLVKLKHELTDEELQSLFTNFANVVDKCCKAESPEVCFNEESPKIGN
B3: Alpha-2-HS-glycoprotein (protein)
chain 1: APHGPGLIYRQPNCDDPETEEAALVAIDYINQNLPWGYKHTLNQIDEVKVWPQQPSGELFEIEIDTLETTCHVLDPTPVARCSVRQLKEHAVEGDCDFQLLKLDGKFSVVYAKCDSSPDSAEDVRKVCQDCPLLAPLNDTRVVHAAKAALAAFNAQNNGSNFQLEEISRAQLVPLPPSTYVEFTVSGTDCVAKEATEAAKCNLLAEKQYGFCKATLSEKLGGAEVAVTCMVFQTQPVSSQPQPEGANEAVPTPVVDPDAPPSPPLGAPGLPPAGSPPDSHVL
chain 2: TVVQPSVGAAAGPVVPPCPGRIRHFKV
B4: Histidine-rich glycoprotein (protein)
chain: VSPTDCSAVEPEAEKALDLINKRRRDGYLFQLLRIADAHLDRVENTTVYYLVLDVQESDCSVLSRKYWNDCEPPDSRRPSEIVIGQCKVIATRHSHESQDLRVIDFNCTTSSVSSALANTKDSPVLIDFFEDTERYRKQANKALEKYKEENDDFASFRVDRIERVARVRGGEGTGYFVDFSVRNCPRHHFPRHPNVFGFCRADLFYDVEALDLESPKNLVINCEVFDPQEHENINGVPPHLGHPFHWGGHERSSTTKPPFKPHGSRDHHHPHKPHEHGPPPPPDERDHSHGPPLPQGPPPLLPMSCSSCQHATFGTNGAQRHSHNNNSSDLHPHKHHSHEQHPHGHHPHAHHPHEHDTHRQHPHGHHPHGHHPHGHHPHGHHPHGHHPHCHDFQDYGPCDPPPHNQGHCCHGHGPPPGHLRRRGPGKGPRPFHCRQIGSVYRLPPLRKGEVLPLPEANFPSFPLPHHKHPLKPDNQPFPQSVSESCPGKFKSGFPQVSMFFTHTFPK
B5: Beta-2-glycoprotein 1 (protein)
chain: GRTCPKPDDLPFSTVVPLKTFYEPGEEITYSCKPGYVSRGGMRKFICPLTGLWPINTLKCTPRVCPFAGILENGAVRYTTFEYPNTISFSCNTGFYLNGADSAKCTEEGKWSPELPVCAPIICPPPSIPTFATLRVYKPSAGNNSLYRDTAVFECLPQHAMFGNDTITCTTHGNWTKLPECREVKCPFPSRPDNGFVNYPAKPTLYYKDKATFGCHDGYSLDGPEEIECTKLGNWSAMPSCKASCKVPVKKATVVYQGERVKIQEKFKNGMLHGDKVSFFCKNKEKKCSYTEDAQCIDGTIEVPKCFKEHSSLAFWKTDASDVKPC

Assays:
Assay in all cases: Mass spectroscopy proteomics, semi-quantitative binding affinity of serum proteins (plaqueproteome, Table 2)
Conditions in all cases: higher number = stronger affinity
[1] = biological target: T1, Abeta-42 plaque particles (Homo sapiens, UniProt P05067)
T1 construct: Abeta 1-42
In short: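 AD patient serum or plasma (50% in PBS) was incubated with Abeta-42 aggregates (30 μg) for 1 h at 37 °C, then stained with Thioflavin S for 30 min. Labeled particles were FACS-sorted, trypsin/Lys-C digested overnight and analyzed by MS/MS. Sequest searched human UniProt; Scaffold/Protein Prophet validated the identifications.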

[2] = tested on: High Density cholesterol (Chl Large) plaque particles; parameters: species or system human
In short: (§1)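 Serum or plasma from atherosclerotic subjects, as 50% serum, was incubated with 30 μg cholesterol aggregates for 1 h at 37 °C. High- and low-density particles were then flow-sorted, trypsin-digested and analysed by MS/MS. Proteins were identified by Sequest search against human UniProt and validated with Protein Prophet.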

[3] = tested on: Low density cholesterol (Chl small) plaque particles; parameters: species or system human
In short: as §1

[4] = biological target: T2, alpha-synuclein plaque particles (Homo sapiens, UniProt P37840)
T2 construct: 140 amino acids polypeptide
In short: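 AD-subject plasma or serum (800 μL of 50%) mixed with 30 μg preformed alpha-synuclein aggregates for 1 h at 37 °C; Thioflavin S-positive particles isolated by flow sorting. After reduction, acrylamide alkylation and overnight tryptic digestion, serum proteins identified by MS/MS with Sequest and Scaffold.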

Tau plaque particles = tested on: Tau plaque particles; parameters: species or system human
In short: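 Serum or plasma proteins captured on Thioflavin S-labelled Tau plaque particles (Tau-74, Tau-275 oligomers preformed in PBS at 37° C for 2 h; 1 h co-incubation at 37° C) were isolated by FACS sorting, then tryptically digested and identified by MS/MS (Sequest, human UniProt, strict trypsin).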

Row | Molecule | Semi-quantitative analysis of proteins binding to different plaque particles: Abeta-42 [1] | Semi-quantitative analysis of proteins binding to different plaque particles: Chl Large [2] | Semi-quantitative analysis of proteins binding to different plaque particles: Chl small [3] | Semi-quantitative analysis of proteins binding to different plaque particles: Synuclein [4] | Semi-quantitative analysis of proteins binding to different plaque particles: Tau (Tau plaque particles)
1 | B1 | 7 | 11 | 7 | 10 | 18
2 | B2 | 2 | 6 | 6 | 6 | 3
3 | B3 | 2 | 9 | 11 | 10 | 10
4 | B4 | 7 | 10 | 9 | 9 | 12
5 | B5 | 4 | 6 | 6 | 7 | 5
